For test [1], the target named is T1, human PD-L2 protein (Acrobiosystem), hPD-L2 hFc (human, UniProt Q9BQ51 20-219, limits assumed).
T1 construct: Bought; also called B7-DC; not shown: human Fc
T1 sequence (looked up): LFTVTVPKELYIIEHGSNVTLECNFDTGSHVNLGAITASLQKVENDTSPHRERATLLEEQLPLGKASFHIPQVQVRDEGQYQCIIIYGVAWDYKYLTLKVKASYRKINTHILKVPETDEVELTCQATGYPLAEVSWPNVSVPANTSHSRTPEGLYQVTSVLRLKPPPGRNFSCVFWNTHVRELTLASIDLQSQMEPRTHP
As to the kind of experiment: ELISA on coated hPD-L2 hFc. How it is done: Supernatant was discarded; a blocking solution (1×PBS+1% BSA) was added in 200 μL/well; and blocking was performed for 1 h at 37° C. […] Washing was performed for 3 times with the 1×PBS. HRP-labeled goat anti-mouse IgG (sigma A0168-1ML) was added in 100 μL/well; incubation was performed for 30 min at 37° C. in a standing manner; and after washing was performed for 3 times with the 1×PBS, a color reaction was performed.

The target in test [2] is T2, human PD-L1 on IFNγ-stimulated A375 cells (human, UniProt Q9NZQ7 19-290).
T2 construct: whole, on cells; PD-L1 of the A375 cells themselves; also called PD-L1 membrane protein
As to the kind of experiment: flow cytometry, antibody titration on human IFNγ-stimulated A375 cells, MFI-APC. How it is done: An experimental process included the following.
50 ng/mL of the human IFNγ (R&D) was used to stimulate the expression of human PD-L1 on human melanoma cells A375 (Shanghai cell bank) overnight; on the next day, 0.25% pancreatin (Gibco) was used to digest the A375 cells; after washing was performed once with DPBS, live cell density was adjusted to 2E6/mL; and the mixture was added into the 96-well V base plate in 100 μL/well. […] The mixture was added into the cells in 100 μL/well; and incubation was performed on ice for 30 min in a standing manner, then 250×g was taken to perform centrifugation for 5 min, and supernatant was discarded in a sucking manner. After washing was performed for 2 times with the 1×FCM buffer, iFluor™633GAM fluorescent secondary antibodies (ATT bioquest) diluted by the 1×FCM buffer (dilution ratio being 1:400) were added in 100 μL/well; and incubation was performed on ice for 30 min. After 250×g was taken to perform centrifugation for 5 min, supernatant was discarded in a sucking manner. After washing was performed for 2 times with the 1×FCM buffer, the cells were resuspended by adding the 1×PBS in 100 μL/well; and the flow cytometer (Beckman, CytoFLEX) was used for detection.
A general note: A flow cytometer gives signals particle by particle.

The target in test [3] is T3, human PD-L1 full-length protein on CHO-hPD-L1 stable cells (human, UniProt Q9NZQ7 19-290).
T3 construct: also called membrane protein PD-L1
As to the kind of experiment: flow cytometry blocking assay (method 1): antibody titrated on CHO-hPD-L1 cells; blocked ligand recombinant human PD-1-hFc. How it is done:
[…] The 1×FCM buffer was used to resuspend the CHO-hPD-L1 cells to the cell density of 2×10E6/mL, and the cells were evenly spread in the 96-well V base plate in 100 μL/well. […] After 250×g was taken to perform centrifugation for 5 min, supernatant was discarded in a sucking manner. After washing was performed for 2 times with the 1×FCM buffer, the cells were resuspended by adding the 1×PBS in 100 μL/well; and the flow cytometer (Beckman, CytoFLEX) was used for detection.

T2 sequence (Q9NZQ7 19-290): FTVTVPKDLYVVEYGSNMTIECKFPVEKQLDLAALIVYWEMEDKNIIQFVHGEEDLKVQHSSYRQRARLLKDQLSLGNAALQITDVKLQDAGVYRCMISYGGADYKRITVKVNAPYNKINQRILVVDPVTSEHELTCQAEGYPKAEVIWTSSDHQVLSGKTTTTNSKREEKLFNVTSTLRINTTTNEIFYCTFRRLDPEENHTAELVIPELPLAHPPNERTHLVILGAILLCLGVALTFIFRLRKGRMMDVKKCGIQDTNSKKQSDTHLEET
T3 sequence (Q9NZQ7 19-290 limits assumed): as the sequence (Q9NZQ7 19-290) above

B1: F016-21 (antibody, V domains shown)
VH: EVQLQQSGPELVKPGASVKMSCKASGYTFTDYVMHWVKQKPGQGLEWIGYINPYNDGTKFNEKFKGKATLTSDKSSSTAYMELSSLTSEDSAVYYCAKQTLDYWGQGTSVTVSS
VL: DIVLTQSPASLAVSLGQRATISCRASESVEYFGTTLMQWYQQRPGQPPKLLIYAASNVESGVPARFSGSGSGTDFSLNIHPVEEDDIAMYFCQQSRKVPYTFGGGTKLEIKR
notes: Mouse hybridoma monoclonal antibody purified from clone supernatant; also called anti-human PD-L1 antibody F016-21
What is called EC50 is the midpoint of the concentration-response curve. Read a high EC50 as a need for much substance. The term IC50 denotes the concentration needed to halve the response being measured. For B1, in test [1], the binding result was “no binding (tested: 10 µg/mL)”. Also, in test [2], the EC50 turned out to be 0.151 nM. In test [3], the IC50 stood at 5.2 nM.

Values taken from US20240301069A1 (GUANGDONG FAPON BIOPHARMA, published 2024).
